# Test results from patent publication US20260049134A1 (UNIVERSITY OF FLORIDA RESEARCH FOUNDATION, published 2026).
# T1: CADM1-His (Acro Biosystems) (human, UniProt Q9BY67 45-374)
# T1 construct: Bought; also called CADM1/IGSF4A; not shown: His tag of the bought protein
# T1 sequence: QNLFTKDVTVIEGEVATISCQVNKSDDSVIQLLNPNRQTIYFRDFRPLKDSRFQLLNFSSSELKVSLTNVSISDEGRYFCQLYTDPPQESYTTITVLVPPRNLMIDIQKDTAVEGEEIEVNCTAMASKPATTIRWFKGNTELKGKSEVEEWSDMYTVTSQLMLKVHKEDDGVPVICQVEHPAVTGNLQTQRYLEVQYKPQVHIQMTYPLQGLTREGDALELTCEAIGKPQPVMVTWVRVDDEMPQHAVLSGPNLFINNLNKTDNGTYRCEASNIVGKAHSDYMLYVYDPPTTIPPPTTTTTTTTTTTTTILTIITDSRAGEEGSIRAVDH
# T2: HHLA2 (B7-H7)
# T2 construct: coated protein in the ELISA; also called HHLA2-Fc (R&D Systems)
# T2 chain: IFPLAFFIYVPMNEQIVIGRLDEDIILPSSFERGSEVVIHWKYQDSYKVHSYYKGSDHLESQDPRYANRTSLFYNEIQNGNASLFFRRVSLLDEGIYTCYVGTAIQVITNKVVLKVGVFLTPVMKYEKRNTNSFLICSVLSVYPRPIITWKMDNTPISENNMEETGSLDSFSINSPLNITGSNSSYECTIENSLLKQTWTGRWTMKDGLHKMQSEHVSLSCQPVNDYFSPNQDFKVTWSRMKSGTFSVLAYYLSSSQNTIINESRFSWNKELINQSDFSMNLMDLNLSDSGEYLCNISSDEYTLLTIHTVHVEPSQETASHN
# T3: IL13RA1
# T3 construct: coated protein in the ELISA; also called IL13RA1-Fc-His (R&D Systems)
# T3 chain: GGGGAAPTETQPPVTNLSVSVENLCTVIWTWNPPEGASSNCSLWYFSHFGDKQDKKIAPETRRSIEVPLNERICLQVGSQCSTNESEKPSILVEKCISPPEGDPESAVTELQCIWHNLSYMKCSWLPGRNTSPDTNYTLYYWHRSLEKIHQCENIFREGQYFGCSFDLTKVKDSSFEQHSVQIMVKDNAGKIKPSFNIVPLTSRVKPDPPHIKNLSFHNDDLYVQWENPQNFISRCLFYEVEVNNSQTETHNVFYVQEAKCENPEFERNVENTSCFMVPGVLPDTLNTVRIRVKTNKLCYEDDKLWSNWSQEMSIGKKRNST
# T4: GARS-His (Sino Biological) (human, UniProt P41250 37-739, limits assumed)
# T4 construct: Bought; also called GARS1; glycyl-tRNA synthetase; not shown: His tag of the bought protein
# T4 sequence: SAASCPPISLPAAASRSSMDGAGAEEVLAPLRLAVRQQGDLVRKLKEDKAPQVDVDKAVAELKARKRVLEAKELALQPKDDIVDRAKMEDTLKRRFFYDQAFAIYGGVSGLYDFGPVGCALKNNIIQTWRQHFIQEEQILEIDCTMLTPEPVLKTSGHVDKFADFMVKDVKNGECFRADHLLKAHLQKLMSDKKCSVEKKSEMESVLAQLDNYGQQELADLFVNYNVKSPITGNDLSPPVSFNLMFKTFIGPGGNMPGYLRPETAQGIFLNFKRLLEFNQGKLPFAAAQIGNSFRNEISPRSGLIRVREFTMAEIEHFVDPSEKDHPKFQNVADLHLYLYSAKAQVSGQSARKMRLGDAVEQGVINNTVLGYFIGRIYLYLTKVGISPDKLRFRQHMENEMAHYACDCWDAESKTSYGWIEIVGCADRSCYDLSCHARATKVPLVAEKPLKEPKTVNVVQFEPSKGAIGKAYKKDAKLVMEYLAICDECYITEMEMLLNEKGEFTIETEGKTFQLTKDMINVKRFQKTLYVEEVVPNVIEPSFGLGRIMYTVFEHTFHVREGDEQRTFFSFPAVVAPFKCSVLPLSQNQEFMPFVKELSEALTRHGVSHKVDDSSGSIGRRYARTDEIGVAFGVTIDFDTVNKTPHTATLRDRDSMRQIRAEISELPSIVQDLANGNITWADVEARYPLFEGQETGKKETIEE
# Tests used:
# [1] = biological target: T5, PTPRG, endogenous in H929 multiple myeloma cells (human, UniProt P23470 20-1445); test: flow cytometry, H929 + NT Green siRNA; None 416
# T5 construct: Native protein on H929 cells (flow cytometry, siRNA knockdown) and in H929 lysates (IP/MS); also called phosphatase receptor type γ
# T5 sequence (P23470 20-1445 limits assumed): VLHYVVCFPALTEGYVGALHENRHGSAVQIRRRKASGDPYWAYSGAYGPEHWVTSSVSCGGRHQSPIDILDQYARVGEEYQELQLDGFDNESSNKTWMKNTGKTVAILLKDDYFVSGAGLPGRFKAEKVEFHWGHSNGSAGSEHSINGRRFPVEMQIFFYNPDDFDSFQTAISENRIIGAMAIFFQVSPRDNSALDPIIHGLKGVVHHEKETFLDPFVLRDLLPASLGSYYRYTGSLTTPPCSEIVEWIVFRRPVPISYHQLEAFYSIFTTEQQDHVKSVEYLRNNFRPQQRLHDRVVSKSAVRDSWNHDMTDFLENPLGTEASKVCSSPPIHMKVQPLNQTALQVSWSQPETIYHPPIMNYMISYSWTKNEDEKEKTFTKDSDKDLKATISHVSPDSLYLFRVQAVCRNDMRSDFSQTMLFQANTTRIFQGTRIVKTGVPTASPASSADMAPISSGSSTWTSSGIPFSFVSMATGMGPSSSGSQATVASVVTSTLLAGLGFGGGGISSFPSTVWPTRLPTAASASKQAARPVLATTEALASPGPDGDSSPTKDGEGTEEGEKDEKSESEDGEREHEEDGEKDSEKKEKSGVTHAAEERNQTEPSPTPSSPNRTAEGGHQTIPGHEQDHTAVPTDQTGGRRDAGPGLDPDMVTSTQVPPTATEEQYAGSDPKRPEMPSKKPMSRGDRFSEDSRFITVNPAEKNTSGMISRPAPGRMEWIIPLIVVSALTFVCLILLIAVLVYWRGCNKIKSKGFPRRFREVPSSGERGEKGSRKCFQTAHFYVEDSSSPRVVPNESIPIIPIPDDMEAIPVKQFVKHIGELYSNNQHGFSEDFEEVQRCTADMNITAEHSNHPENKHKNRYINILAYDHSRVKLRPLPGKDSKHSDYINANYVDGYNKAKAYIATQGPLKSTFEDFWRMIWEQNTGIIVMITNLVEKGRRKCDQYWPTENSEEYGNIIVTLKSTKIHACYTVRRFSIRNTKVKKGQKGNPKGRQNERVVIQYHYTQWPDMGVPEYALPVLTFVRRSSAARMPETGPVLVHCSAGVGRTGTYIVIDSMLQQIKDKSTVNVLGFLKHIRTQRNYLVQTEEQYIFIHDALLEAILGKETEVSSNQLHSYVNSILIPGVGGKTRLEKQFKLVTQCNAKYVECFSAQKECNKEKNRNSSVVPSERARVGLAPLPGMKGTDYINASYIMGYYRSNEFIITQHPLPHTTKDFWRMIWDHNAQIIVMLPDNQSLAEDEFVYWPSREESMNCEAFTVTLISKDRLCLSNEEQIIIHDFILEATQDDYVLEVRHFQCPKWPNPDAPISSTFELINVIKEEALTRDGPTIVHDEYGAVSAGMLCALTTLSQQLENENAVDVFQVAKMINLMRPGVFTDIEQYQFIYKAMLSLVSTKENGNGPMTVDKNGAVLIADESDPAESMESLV
# [2] = biological target: T1, CADM1-His (Acro Biosystems); test: ELISA on coated CADM1-His, 150 ng IgG1; None 0.059
# Experimental: (§1) Recombinant purified ECDs (50-150 ng) of each putative target protein were coated, incubated with 150 ng of the indicated primary antibody, and binding was detected using a peroxidase-conjugated anti-human Fab secondary antibody. Heatmap represents averages of technical triplicates. (8B) Target validation via siRNA knockdown. H929 cells were transfected with siRNA pools targeting the putative antibody targets ICAM1, CADM1, and PTPRG. Cells were then subjected to cognate IgG binding analysis via flow cytometry. (NT, non-targeting siRNA).
# (§2) ELISA ELISA was conducted as described previously. Briefly, 50-150 ng of antigen was coated overnight in half-area 96-well plates at 4° C., blocked with 3% BSA at 37° C. for 1 h, and 150 ng of chimeric rabbit/human IgG1 was added, incubating for 2 h at 37° C. […] After incubating at 37° C. for 15 min-1 h (depending on intensity of controls), data were acquired using a SpectraMax M5 plate reader (Molecular Devices).
# [3] = biological target: T5, PTPRG, endogenous in H929 multiple …; test: flow cytometry, H929 + vehicle; None 2.74
# HHLA2 (B7-H7) = biological target: T2, HHLA2 (B7-H7); test: ELISA on coated HHLA2-Fc, 150 ng IgG1; None 0.087
# Experimental: as §1, §2
# ICAM1-Fc (R&D Systems) = biological target: T6, ICAM1-Fc (R&D Systems) (human, UniProt P05362 28-480); test: ELISA on coated ICAM1-Fc
# T6 construct: Bought; also called ICAM-1/CD54; not shown: Fc of the bought fusion protein
# T6 sequence (P05362 28-480): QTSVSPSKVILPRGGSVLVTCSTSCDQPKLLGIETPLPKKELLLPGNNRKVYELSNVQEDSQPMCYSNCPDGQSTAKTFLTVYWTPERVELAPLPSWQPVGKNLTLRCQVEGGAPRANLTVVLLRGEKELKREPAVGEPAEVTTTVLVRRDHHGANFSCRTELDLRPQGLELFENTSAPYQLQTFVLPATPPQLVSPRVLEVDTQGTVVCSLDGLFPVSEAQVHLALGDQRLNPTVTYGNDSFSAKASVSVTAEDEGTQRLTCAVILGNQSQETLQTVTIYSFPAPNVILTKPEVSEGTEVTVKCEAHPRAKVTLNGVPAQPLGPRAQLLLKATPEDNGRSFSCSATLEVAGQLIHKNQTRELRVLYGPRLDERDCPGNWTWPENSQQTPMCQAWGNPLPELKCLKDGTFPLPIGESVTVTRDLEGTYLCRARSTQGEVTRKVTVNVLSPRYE
# Experimental: as §1, §2
# IL13RA1 = biological target: T3, IL13RA1; test: ELISA on coated IL13RA1-Fc-His, 150 ng IgG1; None 0.094
# Experimental: as §1, §2
# [4] = biological target: T4, GARS-His (Sino Biological); test: ELISA on coated GARS-His, 150 ng IgG1; None 0.099
# Experimental: as §1, §2
Binder,mAb binding (MFI) [1],ELISA Absorbance (405 nm-570 nm) [2],Cells stained (%) [3] [%],ELISA Absorbance (405 nm-570 nm) (HHLA2 (B7-H7)),ELISA Absorbance (405 nm-570 nm) (IL13RA1),ELISA Absorbance (405 nm-570 nm) [4],binding result (ICAM1-Fc (R&D Systems))
"HW-42 chimeric rabbit-human IgG1 LA/LA/PG (antibody, V domains shown, Fc-silenced (L234A/L235A/P329G) IgG1, lambda; Alexa Fluor 647-labeled in single-step flow cytometry; Cluster C-1) VH: QSVKESEGGLFKPADTLTLTCTVSGFSLSSNEISWVRQAPGEGLEYIGIIDTGGRAYYAVWARSRSTITRNTNLNTVTLKMTSLTAADTATYFCARGGVDTEWYAFSSWGPGTLVTVPS VL: SFVLTQPASVQVNLGQTVSLTCTADTLSRRYASWYQQKPGQAPVLLIFRDTSRPSGVPDRFSGSSSGDTATLTISGAQAGDEADYYCATSDGSGSNYQYVFGGGTQLTVTG",8410,0.061,97.5,0.097,0.102,0.099,no binding (tested: 150 ng IgG1 per well)
"HW-17 chimeric rabbit-human IgG1 LA/LA/PG (antibody, V domains shown, Fc-silenced (L234A/L235A/P329G) IgG1, lambda; Alexa Fluor 647-labeled in single-step flow cytometry; Cluster C-1) VH: QSLGESRGRLVTPDETLTLTCTVSGIDLSSNAMSWVRQAPGEGLEWIGTINTGGRAYYASWAKGRFTISRTSTTVDLKMTSLTTEDTATYFCARERYSDGRAYDIWGPGTLVTISS VL: SFVLTQPASVQVNLGQTVSLTCTADTLSRRYASWYQQKPGQAPVLLIYTDSNRPSGIPDRFSGSSSGNTATLTISGAQAGDEADYYCATDDGSGSIYQYVFGGGTQLTVTG",18600,0.048,99.3,0.076,0.073,0.074,
"HW-25 chimeric rabbit-human IgG1 LA/LA/PG (antibody, V domains shown, Fc-silenced (L234A/L235A/P329G) IgG1, lambda; Alexa Fluor 647-labeled in single-step flow cytometry; Cluster C-1) VH: QSLEESGGRLVTPGTPLTLTCTVSGFSLSSYAMGWVRQAPGKGLEWIGIIDSRGSTYYATWAKGRFTISKTSTTVDLKITSPTTEDTATYFCAREDSYYYDSFNLWGPGTLVTVSS VL: SFVLTQPASVQVNLGQTVSLTCTADTLSRRYASWYQQKPGQAPVLLIYRDTSRPSGVPDRFSGSSSGNTATLTISGAQAGDEADYYCATSDGSGSSYQCVFGGGTQLTVTG",7680,0.045,97.2,0.066,0.074,0.103,no binding (tested: 150 ng IgG1 per well)

# Continued, in another order:
mAb binding (MFI) [1],ELISA Absorbance (405 nm-570 nm) [2],Cells stained (%) [3] [%],ELISA Absorbance (405 nm-570 nm) (HHLA2 (B7-H7)),ELISA Absorbance (405 nm-570 nm) (IL13RA1),ELISA Absorbance (405 nm-570 nm) [4],Binder,binding result (ICAM1-Fc (R&D Systems))
483,0.055,2.62,0.086,0.08,0.098,"TH9-0022 (antibody, human IgG1, kappa, L234A L235A, V domains shown, also called TH9-022; negative control) VH: QSLEESGGRLVTPGTPLTLTCTVSGFSLSSYAMNWVRQAPGKGLEWIGIINSYGSTYYASWAKGRFTISKTSTTVDLKITSPTTEDTATYFCARVTYDSYGYGYAPYGMDLWGPGTLVTVSS VL: LVMTQTPSSTSNAVGGTVTIKCQASQSIGNVLAWYQQKPGQPPKLLIYAASTLASGVPSRVGGSRSGTEYTLTISGVQREDAATYYCLGSDSDSDIAFGGGTELEILR",no binding (tested: 150 ng IgG1 per well)
16000,0.053,99.4,0.075,0.08,0.091,"HW-1 chimeric rabbit-human IgG1 LA/LA/PG (antibody, V domains shown, Fc-silenced (L234A/L235A/P329G) IgG1, lambda; Alexa Fluor 647-labeled in single-step flow cytometry; Prototype of cluster C-1) VH: QSLEESGGGLFKPTDTLTLTCTASGFSLGSSYAISWVRQAPGKELEWIGTIDSGRAYYARWAKSRSTITRNTNENTVTLKMTSLTAADTATYFCARDLIPTYSQDIWGPGTLVTISS VL: SFVLTQPASVQVNLGQTVSLTCTADTLSRRYASWYQQKPGQAPVLLIYRDTSRPSGVPDRFSGSSSGNTATLTISGAQAGDEADYYCATSDGSGNSYQYVFGGGTQLTVTS",
12600,0.053,98.6,0.088,0.085,0.087,"HW-70 chimeric rabbit-human IgG1 LA/LA/PG (antibody, V domains shown, Fc-silenced (L234A/L235A/P329G) IgG1, lambda; Alexa Fluor 647-labeled in single-step flow cytometry; Cluster C-1) VH: QSLEESGGRLVTPGTPLTLTCTVSGFSLSSNAMSWVRQAPGKGLEWIGTIDGYGYTYYASWAKGRFTVSKTSTTVDLKITSPTTEDTATYFCAREIYLGSNFWGPGTLVTISS VL: SFVLTQPASVQVNLGQTVSLTCTADTLSRRYASWYQQKPGQAPVLLIYRDTSRPSGVPDRFSGSSSGNTATLTISGAQAGDEADYYCATADGSGSSYQFVFGGGTQLTVTG",no binding (tested: 150 ng IgG1 per well)
